Common to all, as to assay: TAL and PAL enzyme kinetics
Series [1] deals with N[C@@H](Cc1ccccc1)C(=O)O. It is filed as biochemical, Arabidopsis thaliana. As to conditions: other: PAL assay (L-Phe), pH 8.5, 30° C.
The subject of series [2] is N[C@@H](Cc1ccc(O)cc1)C(=O)O. The format is biochemical, Arabidopsis thaliana. The note with it: other: TAL assay (L-Tyr), pH 8.5, 30° C.
The subject of series [3] is N[C@@H](Cc1ccccc1)C(=O)O. It is filed as biochemical, Brachypodium distachyon. The note with it: other: PAL assay (L-Phe), pH 8.5, 30° C. On the procedure:
(§1) All substrate solutions were prepared with 0.01 N NaOH to increase the solubility of L-Tyr. A mixture containing 100 mM Tris-HCl (pH 8.5), 1% glycerol, and purified enzyme in a total volume of 50 μl was preincubated for 3 min at 30° C. PAL and TAL reactions were started by addition of 50 μl of 1 mM substrate (L-Phe or L-Tyr, respectively) and were incubated at 30° C. for 20 min unless otherwise noted. The reactions were terminated by addition of 6N acetic acid (10 μl).
(§2) The kinetic parameters of the recombinant enzymes were determined using HPLC. Reaction mixtures containing 100 mM Tris-HCl (pH 8.5), 1% glycerol, and purified enzyme (0.15 μg for PAL assay and 1 μg for TAL assay) in a 50 μl total volume were preincubated for 3 min at 30° C. PAL and TAL reactions were started by addition of 50 μl substrate solution prepared with 0-4 mM L-Phe and 0-2 mM L-Tyr. After 10 min and 20 min incubations for PAL and TAL assay, respectively, at 30° C., the reaction was terminated by addition of 6N acetic acid (10 μl). […] The products were quantified using calibration curves generated using authentic standards. Non-linear hyperbolic regression analyses were conducted using the Excel Solver tool to calculate Km and Vmax values.

Series [4] concerns N[C@@H](Cc1ccc(O)cc1)C(=O)O. It is filed as biochemical, Brachypodium distachyon. As to conditions: other: TAL assay (L-Tyr), pH 8.5, 30° C. How it is done:
as §1, §2

Series [5] concerns N[C@@H](Cc1ccccc1)C(=O)O. The format is biochemical, Brachypodium distachyon. As to conditions: other: PAL assay (L-Phe), pH 8.5, 30° C. The source holds these as a separate data set.
Series [6] deals with N[C@@H](Cc1ccccc1)C(=O)O. It is filed as biochemical, Sorghum bicolor. As to conditions: other: PAL assay (L-Phe), pH 8.5, 30° C. How it is done: as §1, §2
Series [7] has as its system N[C@@H](Cc1ccc(O)cc1)C(=O)O. The format is biochemical, Sorghum bicolor. The note with it: other: TAL assay (L-Tyr), pH 8.5, 30° C. On the procedure: as §1, §2
Series [8] has as its system N[C@@H](Cc1ccccc1)C(=O)O. The format is biochemical, Sorghum bicolor. The note with it: other: PAL assay (L-Phe), pH 8.5, 30° C. The source holds these as a separate data set.

A word on the Km: it is the concentration of substrate that gives half-maximal velocity. As usually defined, the kcat is the number of substrate molecules converted per active site and unit of time at saturation. The kcat/Km is the second-order rate constant that governs catalysis at low substrate concentration.

Chain of Arabidopsis thaliana AtPAL1, wild type, SEQ ID NO: 144 (Arabidopsis thaliana) (chain, as listed by the source): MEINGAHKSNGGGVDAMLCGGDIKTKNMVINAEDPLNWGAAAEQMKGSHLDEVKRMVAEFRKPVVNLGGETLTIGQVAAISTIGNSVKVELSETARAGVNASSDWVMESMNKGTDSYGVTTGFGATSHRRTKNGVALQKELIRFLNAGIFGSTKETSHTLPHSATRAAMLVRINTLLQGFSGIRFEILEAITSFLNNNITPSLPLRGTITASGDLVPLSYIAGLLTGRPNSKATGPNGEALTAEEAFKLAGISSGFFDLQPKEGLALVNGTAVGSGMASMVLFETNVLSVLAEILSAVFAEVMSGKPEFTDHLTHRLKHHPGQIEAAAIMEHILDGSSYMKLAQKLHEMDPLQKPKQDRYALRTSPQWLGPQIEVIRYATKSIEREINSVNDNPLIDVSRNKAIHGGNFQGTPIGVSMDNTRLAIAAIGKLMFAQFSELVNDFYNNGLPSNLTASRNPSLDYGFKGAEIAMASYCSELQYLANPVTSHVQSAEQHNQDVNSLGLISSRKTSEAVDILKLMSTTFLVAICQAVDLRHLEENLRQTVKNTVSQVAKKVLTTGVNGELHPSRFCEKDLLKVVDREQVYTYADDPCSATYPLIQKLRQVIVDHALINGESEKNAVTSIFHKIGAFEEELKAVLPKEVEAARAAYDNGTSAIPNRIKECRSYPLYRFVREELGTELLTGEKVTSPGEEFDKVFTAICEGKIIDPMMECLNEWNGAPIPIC
Chain of Brachypodium distachyon BdPTAL, wild type (Brachypodium distachyon) (chain, as listed by the source): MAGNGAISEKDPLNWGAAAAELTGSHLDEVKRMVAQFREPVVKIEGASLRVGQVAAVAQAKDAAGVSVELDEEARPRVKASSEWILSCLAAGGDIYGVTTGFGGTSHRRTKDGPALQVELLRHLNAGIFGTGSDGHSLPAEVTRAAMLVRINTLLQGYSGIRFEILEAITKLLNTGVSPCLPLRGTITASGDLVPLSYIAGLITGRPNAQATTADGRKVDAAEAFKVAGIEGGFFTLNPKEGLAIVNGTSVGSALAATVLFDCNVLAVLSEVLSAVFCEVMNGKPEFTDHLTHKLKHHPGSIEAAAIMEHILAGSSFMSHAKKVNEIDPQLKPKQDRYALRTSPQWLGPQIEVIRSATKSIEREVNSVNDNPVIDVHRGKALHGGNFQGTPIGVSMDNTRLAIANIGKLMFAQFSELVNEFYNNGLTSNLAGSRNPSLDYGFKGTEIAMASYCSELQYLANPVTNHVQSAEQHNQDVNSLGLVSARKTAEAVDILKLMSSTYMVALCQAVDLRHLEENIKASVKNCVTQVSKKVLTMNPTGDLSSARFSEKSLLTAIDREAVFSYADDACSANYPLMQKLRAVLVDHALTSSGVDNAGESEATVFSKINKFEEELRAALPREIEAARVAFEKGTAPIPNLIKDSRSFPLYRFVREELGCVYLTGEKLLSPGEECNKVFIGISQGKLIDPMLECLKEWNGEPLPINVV
Chain of Arabidopsis thaliana AtPAL1 variant F144H/S114I (as printed in Table 3; AtPAL1^F144H_S116I, SEQ ID NO: 146, elsewhere) (Arabidopsis thaliana; F144H/S116I) (chain, as listed by the source F144H S114I F144H S116I F144H S116I): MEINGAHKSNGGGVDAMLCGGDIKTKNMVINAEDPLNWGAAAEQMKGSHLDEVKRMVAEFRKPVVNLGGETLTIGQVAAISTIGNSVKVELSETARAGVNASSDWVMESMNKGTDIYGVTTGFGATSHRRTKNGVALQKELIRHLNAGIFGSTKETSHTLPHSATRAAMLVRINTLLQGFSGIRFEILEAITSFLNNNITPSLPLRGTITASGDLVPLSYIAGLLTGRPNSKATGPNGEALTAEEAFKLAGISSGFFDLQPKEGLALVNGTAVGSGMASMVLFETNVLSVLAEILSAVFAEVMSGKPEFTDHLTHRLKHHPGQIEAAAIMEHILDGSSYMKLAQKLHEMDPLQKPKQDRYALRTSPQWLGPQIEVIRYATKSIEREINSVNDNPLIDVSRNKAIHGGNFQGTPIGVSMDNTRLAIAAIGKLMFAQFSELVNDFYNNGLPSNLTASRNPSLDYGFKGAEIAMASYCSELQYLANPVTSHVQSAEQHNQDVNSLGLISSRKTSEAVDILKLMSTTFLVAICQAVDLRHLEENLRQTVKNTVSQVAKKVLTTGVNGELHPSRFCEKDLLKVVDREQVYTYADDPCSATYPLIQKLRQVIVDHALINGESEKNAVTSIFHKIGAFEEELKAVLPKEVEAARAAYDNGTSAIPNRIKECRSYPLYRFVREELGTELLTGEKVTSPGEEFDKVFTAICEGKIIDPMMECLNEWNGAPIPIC
Chain of Arabidopsis thaliana AtPAL1 variant S114I (as printed in Table 3; AtPAL1^S116I, SEQ ID NO: 260, elsewhere) (Arabidopsis thaliana; S116I) (chain, as listed by the source S114I S116I S116I): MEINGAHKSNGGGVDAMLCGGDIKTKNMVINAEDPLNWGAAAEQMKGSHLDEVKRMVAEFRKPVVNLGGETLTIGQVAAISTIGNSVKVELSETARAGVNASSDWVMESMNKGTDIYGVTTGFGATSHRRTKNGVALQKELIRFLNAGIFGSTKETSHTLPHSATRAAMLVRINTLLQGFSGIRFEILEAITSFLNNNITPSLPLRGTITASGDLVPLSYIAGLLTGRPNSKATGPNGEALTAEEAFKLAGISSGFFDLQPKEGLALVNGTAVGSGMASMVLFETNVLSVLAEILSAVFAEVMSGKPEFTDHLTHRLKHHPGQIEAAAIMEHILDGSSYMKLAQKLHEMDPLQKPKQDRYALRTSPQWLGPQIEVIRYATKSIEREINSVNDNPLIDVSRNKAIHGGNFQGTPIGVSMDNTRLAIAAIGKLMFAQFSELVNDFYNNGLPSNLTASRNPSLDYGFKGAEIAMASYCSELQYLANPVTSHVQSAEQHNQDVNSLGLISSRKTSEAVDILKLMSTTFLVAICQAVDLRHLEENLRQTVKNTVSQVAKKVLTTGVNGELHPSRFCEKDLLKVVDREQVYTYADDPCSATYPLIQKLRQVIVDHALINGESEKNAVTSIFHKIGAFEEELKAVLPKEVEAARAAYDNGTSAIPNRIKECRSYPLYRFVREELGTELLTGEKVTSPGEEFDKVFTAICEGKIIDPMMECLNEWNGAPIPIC
Chain of Brachypodium distachyon BdPTAL variant H123F (BdPTAL^H123F) (Brachypodium distachyon; H123F) (chain, as listed by the source H123F H123F H123F): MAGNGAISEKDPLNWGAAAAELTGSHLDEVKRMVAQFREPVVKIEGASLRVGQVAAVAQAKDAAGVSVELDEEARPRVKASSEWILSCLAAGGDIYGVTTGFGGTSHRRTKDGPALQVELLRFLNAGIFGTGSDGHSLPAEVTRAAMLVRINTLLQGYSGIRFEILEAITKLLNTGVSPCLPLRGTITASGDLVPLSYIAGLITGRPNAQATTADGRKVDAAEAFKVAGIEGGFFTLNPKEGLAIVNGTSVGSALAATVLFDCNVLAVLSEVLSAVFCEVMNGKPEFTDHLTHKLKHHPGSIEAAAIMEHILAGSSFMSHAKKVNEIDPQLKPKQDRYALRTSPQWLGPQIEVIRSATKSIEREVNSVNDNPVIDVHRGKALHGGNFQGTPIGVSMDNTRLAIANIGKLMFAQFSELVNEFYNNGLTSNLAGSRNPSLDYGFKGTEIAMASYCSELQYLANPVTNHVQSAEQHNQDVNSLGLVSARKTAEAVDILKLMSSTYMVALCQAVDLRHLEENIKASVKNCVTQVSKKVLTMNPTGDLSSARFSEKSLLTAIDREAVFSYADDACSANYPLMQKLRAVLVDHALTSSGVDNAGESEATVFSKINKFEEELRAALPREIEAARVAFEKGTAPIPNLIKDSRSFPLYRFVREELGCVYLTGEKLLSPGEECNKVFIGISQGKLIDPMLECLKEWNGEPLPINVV
Chain of Sorghum bicolor SbPTAL, wild type (Sorghum bicolor) (chain, as listed by the source): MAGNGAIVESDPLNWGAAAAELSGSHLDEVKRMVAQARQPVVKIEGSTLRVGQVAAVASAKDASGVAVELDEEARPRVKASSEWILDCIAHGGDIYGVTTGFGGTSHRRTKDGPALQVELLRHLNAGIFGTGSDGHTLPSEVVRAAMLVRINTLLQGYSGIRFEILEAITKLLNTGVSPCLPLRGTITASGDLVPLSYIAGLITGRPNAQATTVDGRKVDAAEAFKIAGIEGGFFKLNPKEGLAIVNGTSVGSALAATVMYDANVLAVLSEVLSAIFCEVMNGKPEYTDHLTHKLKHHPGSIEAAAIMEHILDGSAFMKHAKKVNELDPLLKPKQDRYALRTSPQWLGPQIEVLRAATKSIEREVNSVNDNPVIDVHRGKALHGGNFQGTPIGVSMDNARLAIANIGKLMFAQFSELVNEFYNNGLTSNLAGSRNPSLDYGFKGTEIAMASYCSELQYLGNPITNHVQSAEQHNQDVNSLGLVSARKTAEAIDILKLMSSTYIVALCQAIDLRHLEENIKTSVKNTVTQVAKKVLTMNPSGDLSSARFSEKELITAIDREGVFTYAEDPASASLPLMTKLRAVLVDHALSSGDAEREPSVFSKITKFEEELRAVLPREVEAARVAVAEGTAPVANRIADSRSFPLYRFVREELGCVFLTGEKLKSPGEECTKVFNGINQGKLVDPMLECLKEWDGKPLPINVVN
Chain of Arabidopsis thaliana AtPAL1 variant F144H (AtPAL1^F144H), SEQ ID NO: 261 (Arabidopsis thaliana; F144H) (chain, as listed by the source F144H F144H F144H): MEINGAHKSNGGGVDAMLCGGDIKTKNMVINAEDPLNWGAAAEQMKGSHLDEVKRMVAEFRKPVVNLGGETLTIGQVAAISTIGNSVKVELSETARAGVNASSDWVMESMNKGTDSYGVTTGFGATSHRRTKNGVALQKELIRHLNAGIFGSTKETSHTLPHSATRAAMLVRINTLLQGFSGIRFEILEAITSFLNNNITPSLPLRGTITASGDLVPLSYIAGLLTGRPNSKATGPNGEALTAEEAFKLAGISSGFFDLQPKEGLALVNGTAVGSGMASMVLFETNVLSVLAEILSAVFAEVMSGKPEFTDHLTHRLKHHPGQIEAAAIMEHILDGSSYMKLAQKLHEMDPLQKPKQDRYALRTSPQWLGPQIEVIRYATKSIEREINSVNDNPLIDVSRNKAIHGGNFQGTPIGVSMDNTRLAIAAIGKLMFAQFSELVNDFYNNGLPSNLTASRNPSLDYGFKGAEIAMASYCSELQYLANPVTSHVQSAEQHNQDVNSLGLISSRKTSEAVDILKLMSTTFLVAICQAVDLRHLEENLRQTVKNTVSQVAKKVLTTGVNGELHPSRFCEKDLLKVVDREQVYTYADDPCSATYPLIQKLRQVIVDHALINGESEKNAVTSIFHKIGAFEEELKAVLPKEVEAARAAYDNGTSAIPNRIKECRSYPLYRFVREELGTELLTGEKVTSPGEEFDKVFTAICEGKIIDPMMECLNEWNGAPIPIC

With “Arabidopsis thaliana AtPAL1 variant F144H (AtPAL1^F144H), SEQ ID NO: 261 (Arabidopsis thaliana; F144H)”, in the series with N[C@@H](Cc1ccccc1)C(=O)O [1], the Michaelis-Menten constant (Km) came out at 1198.9 ± 21.1 µM, the kcat is 1.58 ± 0.04 s⁻¹ and the kcat/Km is 1320 ± 20 M⁻¹ s⁻¹.

For the substance “Arabidopsis thaliana AtPAL1 variant F144H/S114I (as printed in Table 3; AtPAL1^F144H_S116I, SEQ ID NO: 146, elsewhere) (Arabidopsis thaliana; F144H/S116I)”, in the series on N[C@@H](Cc1ccccc1)C(=O)O [1], the Km is 87.3 ± 2.9 µM, the turnover number (kcat) stood at 0.88 ± 0.01 s⁻¹ and the kcat/Km is 10070 ± 440 M⁻¹ s⁻¹.

Take “Arabidopsis thaliana AtPAL1 variant S114I (as printed in Table 3; AtPAL1^S116I, SEQ ID NO: 260, elsewhere) (Arabidopsis thaliana; S116I)”: in the series on N[C@@H](Cc1ccccc1)C(=O)O [1], the Km stood at 10.1 ± 1.9 µM, the kcat is 0.23 ± 0.00 s⁻¹ and the kcat/Km came to 23710 ± 4630 M⁻¹ s⁻¹. In addition, in series [2], the Km worked out at 515.4 ± 54.3 µM, the kcat came to 0.02 ± 0.00 s⁻¹ and the kcat/Km was determined as 40 ± 0 M⁻¹ s⁻¹.

Turning to “Arabidopsis thaliana AtPAL1, wild type, SEQ ID NO: 144 (Arabidopsis thaliana)”, in the series with N[C@@H](Cc1ccccc1)C(=O)O [1], the Km worked out at 52.2 ± 3.1 µM, the kcat was 1.42 ± 0.07 s⁻¹ and the kcat/Km was 27310 ± 850 M⁻¹ s⁻¹.

On to “Brachypodium distachyon BdPTAL variant H123F (BdPTAL^H123F) (Brachypodium distachyon; H123F)”, for which, in the series with N[C@@H](Cc1ccccc1)C(=O)O [3], the Km is 6.0 ± 1.4 µM, the kcat worked out at 0.17 ± 0.00 s⁻¹ and the kcat/Km stood at 29920 ± 6750 M⁻¹ s⁻¹. Besides, in series [4], the Km came to 765.2 ± 65.8 µM, the kcat was 0.03 ± 0.00 s⁻¹ and the kcat/Km was found to be 40 ± 0 M⁻¹ s⁻¹.

“Brachypodium distachyon BdPTAL, wild type (Brachypodium distachyon)”: in the series with N[C@@H](Cc1ccccc1)C(=O)O [5], the Km came to 216.6 ± 10.3 µM, the kcat is 1.05 ± 0.05 s⁻¹ and the kcat/Km was determined as 4840 ± 110 M⁻¹ s⁻¹.

As for “Sorghum bicolor SbPTAL variant H123F (SbPTAL^H123F) (Sorghum bicolor; H123F)”, in the series with N[C@@H](Cc1ccccc1)C(=O)O [6], the Km is 3.8 ± 2.0 µM, the kcat was found to be 0.10 ± 0.00 s⁻¹ and the kcat/Km is 30970 ± 13700 M⁻¹ s⁻¹. Also, in series [7], the Km is 750.7 ± 36.8 µM, the kcat was found to be 0.03 ± 0.00 s⁻¹ and the kcat/Km turned out to be 40 ± 0 M⁻¹ s⁻¹.

Consider “Sorghum bicolor SbPTAL, wild type (Sorghum bicolor)”, for which, in the series with N[C@@H](Cc1ccccc1)C(=O)O [8], the Km was 150.1 ± 14.4 µM, the kcat was determined as 0.69 ± 0.01 s⁻¹ and the kcat/Km was 4630 ± 490 M⁻¹ s⁻¹.

The record behind these values is US20240318160A1.
